Source: US20250197488A1 (MABWELL SHANGHAI BIOSCIENCE, published 2025)
Changes are numbered by the printed parent chain.

T1: human IL-11 (AAH12506.1, Pro22-Leu199) (human, UniProt P20809 22-199)
T1 construct: The range Pro22-Leu199 counts on AAH12506.1; The Octet runs say only 'human IL-11'; also called hIL-11
T1 chain: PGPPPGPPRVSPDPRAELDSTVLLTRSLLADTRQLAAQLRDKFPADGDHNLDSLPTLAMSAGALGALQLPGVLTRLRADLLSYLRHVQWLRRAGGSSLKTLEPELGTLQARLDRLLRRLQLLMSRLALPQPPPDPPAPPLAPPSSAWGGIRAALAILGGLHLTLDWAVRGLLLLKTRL

T2: IL-11 (Cat. 12225-HNCE, Sino Biological Inc.) (UniProt P20809 22-199, limits assumed)
T2 sequence (looked up): T1 chain with L154H

B1: hz18A10-VHm2 + hz18A10-VLm9 (antibody, V domains shown)
VH: EVQLVQSGAEVKKPGASVKVSCKASGYTFTTYNMDWVRQAPGQGLEWMGTIYPGNGDTSYNQKFKGRVTMTRDTSTSTVYMELSSLRSEDTAVYYCARGDLHYLDYWGQGTLVTVSS
VL: DIQMTQSPSSLSASVGDRVTITCKASQSVYSDVAWYQQKPGKAPKLLIYSASNRYTGVPSRFSGSGSGTDFTFTISSLQPEDIATYYCQHDYSSPYTFGQGTKLEIK
notes: Constant regions not restated for this antibody
B2: hz18A10-VHm8 + hz18A10-VLm19 (antibody, V domains shown)
VH: B1 VH with N33D, D35H, H102Y, Y103A
VL: B1 VL with S31R
notes: as for B1
B3: hz18A10-VHm5 + hz18A10-VLm9 (antibody, V domains shown)
VH: B1 VH with T30I, V79A, G99A, Y103F
VL: B1 VL
notes: as for B1
B4: hz18A10-VHm14 + hz18A10-VLm19 (antibody, V domains shown)
VH: B1 VH with T31H, N33Q, H102Y, Y103A
VL: B1 VL with S31R
notes: as for B1
B5: hz18A10-VHm12 + hz18A10-VLm19 (antibody, V domains shown)
VH: B1 VH with T31H, N33D, H102Y, Y103A
VL: B1 VL with S31R
notes: as for B1
B6: hz18A10-VHm10 + hz18A10-VLm19 (antibody, V domains shown)
VH: B1 VH with T30N, T31H, H102Y, Y103A
VL: B1 VL with S31R
notes: as for B1
B7: hz18A10-VHm9 + hz18A10-VLm19 (antibody, V domains shown)
VH: B1 VH with N33D, D35S, H102Y, Y103A
VL: B1 VL with S31R
notes: as for B1
B8: hz18A10-VHm17 + hz18A10-VLm19 (antibody, V domains shown)
VH: B1 VH with T31H, N33D, N55E, H102Y, Y103A
VL: B1 VL with S31R
notes: as for B1
B9: hz18A10-VHm20 + hz18A10-VLm19 (antibody, V domains shown)
VH: B1 VH with T31H, N55Q, H102Y, Y103A
VL: B1 VL with S31R
notes: as for B1
B10: hz18A10-VHm7 + hz18A10-VLm19 (antibody, V domains shown)
VH: B1 VH with N33D, M34I, H102Y, Y103A
VL: B1 VL with S31R
notes: as for B1
B11: hz18A10-VHm16 + hz18A10-VLm19 (antibody, V domains shown)
VH: B1 VH with T31H, N33D, G56A, H102Y, Y103A
VL: B1 VL with S31R
notes: as for B1
B12: hz18A10-VHm3 + hz18A10-VLm19 (antibody, V domains shown)
VH: B1 VH with N33D, H102Y, Y103A
VL: B1 VL with S31R
notes: as for B1
B13: hz18A10-VHm6 + hz18A10-VLm9 (antibody, V domains shown)
VH: B1 VH with T30N, T31H, N33D, H102Y, Y103A
VL: B1 VL
notes: as for B1
B14: hz18A10-VHm6 + hz18A10-VLm19 (antibody, V domains shown)
VH: B1 VH with T30N, T31H, N33D, H102Y, Y103A
VL: B1 VL with S31R
notes: as for B1
B15: hz18A10-VHm18 + hz18A10-VLm19 (antibody, V domains shown)
VH: B1 VH with T31H, N55E, H102Y, Y103A
VL: B1 VL with S31R
notes: as for B1
B16: hz18A10-VHm4 + hz18A10-VLm18 (antibody, V domains shown)
VH: B1 VH with M34I, H102Y, Y103A
VL: B1 VL with S31R, S50R, N53S
notes: as for B1
B17: hz18A10-VHm3 + hz18A10-VLm9 (antibody, V domains shown)
VH: B1 VH with N33D, H102Y, Y103A
VL: B1 VL
notes: as for B1
B18: hz18A10-VHm11 + hz18A10-VLm19 (antibody, V domains shown)
VH: B1 VH with T31H, H102Y, Y103A
VL: B1 VL with S31R
notes: as for B1
B19: hz18A10-VHm2 + hz18A10-VLm11 (antibody, V domains shown)
VH: B1 VH
VL: B1 VL with Y30S, S31N, S50R
notes: as for B1
B20: hz18A10-VHm13 + hz18A10-VLm19 (antibody, V domains shown)
VH: B1 VH with T31H, N33E, H102Y, Y103A
VL: B1 VL with S31R
notes: as for B1
B21: hz18A10-VHm4 + hz18A10-VLm9 (antibody, V domains shown)
VH: B1 VH with M34I, H102Y, Y103A
VL: B1 VL
notes: as for B1
B22: hz18A10-VHm15 + hz18A10-VLm19 (antibody, V domains shown)
VH: B1 VH with T31H, N33S, H102Y, Y103A
VL: B1 VL with S31R
notes: as for B1

Molecular target: T1, human IL-11 (AAH12506.1, Pro22-Leu199)
Test: BLI (Octet), antibody captured, human IL-11 in solution
Method in brief: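 Kd, kon and koff were derived by fitting blank-subtracted bio-layer interferometry curves to a 1:1 Langmuir binding model. On a Fortebio Octet QKe System, antibodies diluted in HBS-EP+ buffer were captured on AMC or AHC biosensors and exposed to 300 nM human IL-11 for 300 seconds of association and 300 seconds of dissociation.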

Kd [nM]	koff [s⁻¹]	kon [M⁻¹ s⁻¹]	Binder
2.33	0.000941	404000	B1
1.44	0.0011	760000	B2
1.15	0.000732	639000	B3
0.678	0.000485	716000	B4
0.185	0.000173	934000	B5
0.235	0.000216	917000	B6
0.538	0.000448	833000	B7
0.00708	8.23e-06	1.16e+06	B8
0.22	0.000227	1.03e+06	B9
0.105	0.000113	1.08e+06	B10
0.0956	0.00012	1.26e+06	B11
0.683	0.000652	954000	B12
0.00718	7.17e-06	999000	B13
0.213	0.000194	911000	B14
0.313	0.000354	1.13e+06	B15
0.322	0.000266	826000	B16
0.0959	9.7e-05	1.01e+06	B17
0.138	0.000119	862000	B18
1.01	0.000317	314000	B19
0.203	0.000148	729000	B20
0.488	0.000496	1.02e+06	B21
0.346	0.000263	760000	B22

These binders were tested against T2, IL-11 (Cat. 12225-HNCE, Sino Biological …) (assay: cell-based or functional assay).

Blocking activity (IC50), STAT3-luc reporter [µg/mL]	Binder
13.9	B1
8.64	B2
11.6	B3
1.03	B4
0.011	B5
0.136	B6
0.99	B7
0.013	B8
0.061	B9
1.22	B10
0.034	B11
0.262	B12
0.034	B13
0.017	B14
0.79	B15
1.94	B16
0.248	B17
0.112	B18
9.46	B19
0.338	B20
2.23	B21
0.511	B22
